Experimental data from patent US20130330802A1.
Each block holds one molecule with its values, some of them ahead of it.

How the values were obtained:
[1] = target: His-tagged-hMPR9 (domain 9 of human mannose-6-phosphate receptor with C-terminal His-tag) (human) (UniProt P11717); assay: SPR (Biacore T100), His-tagged-hMPR9 on NTA chip, rhI2S as analyte
[2] = target: mannose 6-phosphate (M6P) receptor on cultured human fibroblasts (CCD-1076SK) (human) (UniProt P11717); assay: cell-based or functional assay
[3] = target: mannose 6-phosphate (M6P) receptor on cultured human fibroblasts (CCD-1076SK) (human), P11717; assay: cell-based or functional assay
mannose 6-phosphate (M6P) receptor on cultured human fibroblasts (CCD-1076SK) (human), P11717, sequence (P11717 41-2491): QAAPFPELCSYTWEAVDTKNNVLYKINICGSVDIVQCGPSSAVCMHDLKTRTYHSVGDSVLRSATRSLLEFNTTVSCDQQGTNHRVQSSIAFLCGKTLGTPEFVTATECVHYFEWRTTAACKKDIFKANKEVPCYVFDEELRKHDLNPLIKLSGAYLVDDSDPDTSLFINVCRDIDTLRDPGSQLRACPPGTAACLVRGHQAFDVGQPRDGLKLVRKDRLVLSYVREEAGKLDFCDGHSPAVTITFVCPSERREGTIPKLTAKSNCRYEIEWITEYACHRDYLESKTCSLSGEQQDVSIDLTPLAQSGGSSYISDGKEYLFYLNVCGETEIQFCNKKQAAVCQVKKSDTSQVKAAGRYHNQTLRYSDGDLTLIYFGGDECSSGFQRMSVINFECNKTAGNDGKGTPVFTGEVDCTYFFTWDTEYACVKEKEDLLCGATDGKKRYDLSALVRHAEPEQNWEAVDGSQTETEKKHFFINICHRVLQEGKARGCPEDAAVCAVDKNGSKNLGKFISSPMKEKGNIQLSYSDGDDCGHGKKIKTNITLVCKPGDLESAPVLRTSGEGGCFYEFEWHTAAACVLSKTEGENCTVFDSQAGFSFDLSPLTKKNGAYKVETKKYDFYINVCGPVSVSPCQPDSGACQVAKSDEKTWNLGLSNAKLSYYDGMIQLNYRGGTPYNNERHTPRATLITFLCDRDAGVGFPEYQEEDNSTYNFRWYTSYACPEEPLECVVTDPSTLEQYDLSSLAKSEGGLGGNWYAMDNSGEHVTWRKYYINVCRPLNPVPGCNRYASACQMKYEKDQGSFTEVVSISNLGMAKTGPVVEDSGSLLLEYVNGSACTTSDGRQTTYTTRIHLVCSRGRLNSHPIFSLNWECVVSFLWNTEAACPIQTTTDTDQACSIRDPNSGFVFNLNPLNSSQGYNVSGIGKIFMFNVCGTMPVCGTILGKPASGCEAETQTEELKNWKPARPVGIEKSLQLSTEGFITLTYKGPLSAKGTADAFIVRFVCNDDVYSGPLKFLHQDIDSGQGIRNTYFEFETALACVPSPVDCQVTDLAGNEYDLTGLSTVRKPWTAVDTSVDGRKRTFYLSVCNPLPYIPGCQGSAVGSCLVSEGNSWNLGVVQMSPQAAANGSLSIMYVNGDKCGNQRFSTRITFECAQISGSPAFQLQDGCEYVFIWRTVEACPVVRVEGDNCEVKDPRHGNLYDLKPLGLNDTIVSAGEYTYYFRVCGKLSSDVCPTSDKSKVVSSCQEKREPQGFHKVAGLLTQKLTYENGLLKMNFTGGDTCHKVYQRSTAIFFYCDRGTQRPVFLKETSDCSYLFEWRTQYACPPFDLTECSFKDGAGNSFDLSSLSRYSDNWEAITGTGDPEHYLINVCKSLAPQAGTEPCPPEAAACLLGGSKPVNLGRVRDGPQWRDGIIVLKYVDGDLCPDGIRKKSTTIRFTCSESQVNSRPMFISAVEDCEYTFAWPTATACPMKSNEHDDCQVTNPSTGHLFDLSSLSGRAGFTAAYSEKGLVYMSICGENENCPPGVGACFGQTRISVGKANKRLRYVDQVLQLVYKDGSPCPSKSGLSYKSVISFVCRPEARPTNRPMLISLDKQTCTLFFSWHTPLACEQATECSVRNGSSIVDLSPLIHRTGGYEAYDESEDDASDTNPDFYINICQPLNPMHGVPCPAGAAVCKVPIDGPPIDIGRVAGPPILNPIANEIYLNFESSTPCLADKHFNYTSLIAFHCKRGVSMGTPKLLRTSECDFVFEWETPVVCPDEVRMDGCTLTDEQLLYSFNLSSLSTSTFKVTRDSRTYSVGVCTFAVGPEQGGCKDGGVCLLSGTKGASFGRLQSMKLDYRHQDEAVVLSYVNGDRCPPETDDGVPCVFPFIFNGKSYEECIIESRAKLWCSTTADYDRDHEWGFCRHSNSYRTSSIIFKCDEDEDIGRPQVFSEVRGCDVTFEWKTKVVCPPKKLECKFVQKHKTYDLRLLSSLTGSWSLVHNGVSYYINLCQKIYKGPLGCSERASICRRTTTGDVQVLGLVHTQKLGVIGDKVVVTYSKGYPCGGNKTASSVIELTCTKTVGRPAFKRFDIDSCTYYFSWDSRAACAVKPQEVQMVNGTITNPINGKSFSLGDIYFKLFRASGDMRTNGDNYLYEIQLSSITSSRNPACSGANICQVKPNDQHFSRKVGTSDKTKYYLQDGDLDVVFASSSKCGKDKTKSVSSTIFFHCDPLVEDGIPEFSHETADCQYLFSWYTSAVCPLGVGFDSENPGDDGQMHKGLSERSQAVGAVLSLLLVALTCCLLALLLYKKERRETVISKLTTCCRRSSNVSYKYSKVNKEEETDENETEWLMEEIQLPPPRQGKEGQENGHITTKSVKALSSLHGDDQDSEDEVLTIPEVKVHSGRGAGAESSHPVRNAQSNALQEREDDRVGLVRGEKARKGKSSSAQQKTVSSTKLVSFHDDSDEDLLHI

[4] = target: His-tagged-hMPR9 (domain 9 of human mannose-6-phosphate receptor with C-terminal His-tag) (human) (UniProt P11717); assay: SPR (Biacore T100), His-tagged-hMPR9 on NTA chip, rhI2S as analyte; low end of range over lots 1-7
[5] = target: His-tagged-hMPR9 (domain 9 of human mannose-6-phosphate receptor with C-terminal His-tag) (human) (UniProt P11717); assay: SPR (Biacore T100), His-tagged-hMPR9 on NTA chip, rhI2S as analyte; average of lots 1-7
[6] = target: His-tagged-hMPR9 (domain 9 of human mannose-6-phosphate receptor with C-terminal His-tag) (human) (UniProt P11717); assay: SPR (Biacore T100), His-tagged-hMPR9 on NTA chip, rhI2S as analyte; high end of range over lots 1-7

Kd [1]: 3.32 nM | EC50 of cellular uptake (human fibroblasts, 18 hrs, rhI2S in lysate by ELISA) [2]: 1.46 µg/mL
Molecule: commercially-available medicinal rhI2S (from UniProt P22304 26-550) (enzyme)

EC50 of cellular uptake (human fibroblasts, 18 hrs, rhI2S in lysate by ELISA) [3]: 0.452 µg/mL
B1: recombinant human iduronate 2-sulfatase (rhI2S) of the present invention (Lot Nos. 1-7), P22304 26-550 (enzyme)
chain: SETQANSTTDALNVLLIIVDDLRPSLGCYGDKLVRSPNIDQLASHSLLFQNAFAQQAVCAPSRVSFLTGRRPDTTRLYDFNSYWRVHAGNFSTIPQYFKENGYVTMSVGKVFHPGISSNHTDDSPYSWSFPPYHPSSEKYENTKTCRGPDGELHANLLCPVDVLDVPEGTLPDKQSTEQAIQLLEKMKTSASPFFLAVGYHKPHIPFRYPKEFQKLYPLENITLAPDPEVPDGLPPVAYNPWMDIRQREDVQALNISVPYGPIPVDFQRKIRQSYFASVSYLDTQVGRLLSALDDLQLANSTIIAFTSDHGWALGEHGEWAKYSNFDVATHVPLIFYVPGRTASLPEAGEKLFPYLDPFDSASQLMEPGRQSMDLVELVSLFPTLAGLAGLQVPPRCPVPSFHVELCREGKNLLKHFRFRDLEEDPYLPGNPRELIAYSQYPRPSDIPQWNSDKPSLKDIKIMGYSIRTIDYRYTVWVGFNPDEFLANFSDIHAGELYFVDSDPLQDHNMYNDSQGGDLFQLLMP
modifications: here or on the partner: glycosylated; linked oligosaccharide chains containing mannose-6-phosphate residues, 3.74-5.38 mol/mol (average 4.37 mol/mol)

Kd [4]: 0.758 nM | Kd [5]: 1.04 nM | Kd [6]: 1.23 nM
B2: recombinant human iduronate 2-sulfatase (rhI2S) of the present invention (Lot Nos. 1-7) (enzyme)
chain: B1 chain
modifications: glycosylated; linked oligosaccharide chains containing mannose-6-phosphate residues, 3.74-5.38 mol/mol (average 4.37 mol/mol)
